Laboratory results published in paper doi:10.1101/2022.05.23.493104 (bioRxiv, 2022).
Where a chain is given by its changes, count along the chain named. Names may count otherwise.

T1: CAV1-His (wild type caveolin-1, E. coli expression) (human, UniProt Q03135 1-178)
T1 sequence: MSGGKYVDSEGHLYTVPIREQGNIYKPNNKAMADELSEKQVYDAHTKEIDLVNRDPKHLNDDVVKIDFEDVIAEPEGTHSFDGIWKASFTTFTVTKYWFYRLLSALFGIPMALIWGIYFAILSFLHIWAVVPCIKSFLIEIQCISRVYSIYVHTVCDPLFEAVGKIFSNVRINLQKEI

B1: P132L-mVenusHis (caveolin-1 P132L with C-terminal mVenus, E. coli expression) (natural protein, human)
chain: T1 sequence with P132L
B2: P132L-His (caveolin-1 P132L, E. coli expression) (natural protein, human)
chain: T1 sequence with P132L

How the values were obtained:
[1] = molecular target: T1, CAV1-His (wild type caveolin-1, E. coli …); experiment: negative stain electron microscopy
[2] = molecular target: the molecule itself; experiment: negative stain electron microscopy

| Binder | binding result [1] | binding result [2] |
| --- | --- | --- |
| B1 | binds | binds |
| B2 |  | binds |
